Data from patent publication US20140212431A1 (Genentech, published 2014).

Legend:
[1] = target: T1, recombinant human PCSK9 with a histidine (His)8 C-terminal tag (human, UniProt Q8NBP7 31-692, biotinylated in vitro (EZ-link Sulfo-NHS-biotinylation kit) where the assay names biotinylated PCSK9); assay: cell-based or functional assay
[2] = target: T1, recombinant human PCSK9 with a …; assay: SPR (Biacore 3000), EGF-Fc captured by anti-human Fc, PCSK9 injected, 1 mM CaCl2; SPR, 1 mM Ca^2+
[3] = target: T1, recombinant human PCSK9 with a …; assay: biolayer interferometry (Octet RED 384), EGF-Fc on Fc biosensor, PCSK9 0-500 nM, 1 mM CaCl2, steady state fit; biolayer interferometry, steady state, 1 mM CaCl2

B1: EGFwt-Fc fusion protein (Fc fusion)
chain: not shown
notes: A single EGF-Fc protein contains two EGF domains; also called EGF-Fc (WT); EGF(A)-Fc; not shown: Fc domain of human IgG1 (C222-K443)
[1]
  EC50: concentration that restored LDLR levels on the HepG2 cell surface to 50% of control: 11000 nM
[2]
  Kd: 935 nM
[3]
  Kd: 900 nM
